# Test results reported in patent US20220047716A1 (SUTRO BIOPHARMA, published 2022).
# Residue numbers refer to the chain shown, from its start.
# B1: SRP1848-E02 (antibody, V domains shown)
# VH: EVQLVESGGGLVQPGGSLRLSCAASGFNIGKYSIHWVRQAPGKGLEWVGEIYPNDGNTDYADSVKGRFTISADTSKNTAYLQMNSLRAEDTAVYYCARGSWSWRSGYGYYLDYWGQGTLVTVSS
# VL: not shown
# B2: SRP1848-F05 (antibody, V domains shown)
# VH: B1 VH with G30S, Y32S, N57S, S102A, G108S, Y110F
# VL: not shown
# B3: SRP1848-E07 (antibody, V domains shown)
# VH: B1 VH with G30R, Y32S, Y52F, N54Y, N57S, S63N, S100A, L111I
# VL: not shown
# B4: SRP1848-F08 (antibody, V domains shown)
# VH: EVQLVESGGGLVQPGGSLRLSCAAGGFNISNHSIHWVRQAPGKGVEWVGEIYPVDGITDYADSVKGRFTISADTSKNTAYLRMNSLRAEDTAVYYCARGSWYWQSGYSYYLDYWGQGTLVTVSS
# VL: not shown
# B5: SRP1848-F02 (antibody, V domains shown)
# VH: B1 VH with G30R, K31T, E50S, Y52F, N57T, F68L, R104Q, S105A
# VL: not shown
# B6: SRP1848-E05 (antibody, V domains shown)
# VH: B1 VH with L20V, K31V, S33Y, E50G, Y52T, N57Y, S100F, S102A
# VL: not shown
# B7: SRP1848-F07 (antibody, V domains shown)
# VH: B4 VH with G25S, V45L, V54N, R82Q, R87S, Y102D, Q104R
# VL: not shown
# B8: SRP1848-F10 (antibody, V domains shown)
# VH: B1 VH with G30S, K31N, Y32N, E50S, Y52F, N57Y, S102F
# VL: not shown
# B9: SRP1848-F01 (antibody, V domains shown)
# VH: B1 VH with G30R, K31T, E50S, Y52F, N57T, S102A, S105A, G108S
# VL: not shown
# B10: SRP1848-F06 (antibody, V domains shown)
# VH: B1 VH with G30S, K31L, Y32S, S33Y, E50G, Y52S, N54I, S100F, S102A
# VL: not shown
# B11: SRP1848-F09 (antibody, V domains shown)
# VH: B1 VH with G30S, K31N, Y32H, S33Y, E50G, Y52S, N54L, N57Y, S100A, L111I
# VL: not shown
# Target: human folate receptor alpha (hFOLR1) (human, UniProt P15328 25-234)
# Assay: cell-based or functional assay
# human folate receptor alpha (hFOLR1), sequence (P15328 25-234 limits assumed): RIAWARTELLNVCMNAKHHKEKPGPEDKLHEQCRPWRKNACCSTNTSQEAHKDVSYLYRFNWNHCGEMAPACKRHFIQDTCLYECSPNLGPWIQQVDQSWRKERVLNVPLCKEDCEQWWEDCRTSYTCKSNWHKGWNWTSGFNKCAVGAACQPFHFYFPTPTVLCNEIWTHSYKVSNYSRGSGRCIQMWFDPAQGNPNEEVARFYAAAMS
Binder,Igrov 2° antibody cell killing EC50 [nM],Igrov 2° antibody cell killing Span [%],KB 2° antibody cell killing EC50 [nM],KB 2° antibody cell killing Span [%]
B1,0.025,71,0.046,93
B2,0.015,74,0.061,94
B3,0.013,73,0.059,94
B4,0.024,77,0.061,94
B5,0.009,54,0.054,92
B6,0.027,78,0.071,95
B7,0.018,71,0.057,92
B8,0.009,68,0.038,94
B9,0.018,69,0.047,91
B10,0.032,77,0.066,94
B11,0.05,79,0.056,93
